Test results taken from the DeepSol protein solubility set.

assay: soluble on expression in E. coli; label from the status in PepcDB or PDB records

Row | Sequence | soluble on expression in E. coli
1 | MIIMYAIGIGDNKEEVLKAYEKLKEEGIEVELIDNPKLLVDKLLDGEIDGAVRGSLSSSKVILYLRERIGKFYRASILKNPFTNGIFLLSPVGIDDISEDKNERIKDKIRIIEFASNFLKNYNIKAKVAVLSGGRLGDLGRNKVVDETIYEAEEIVEHFKGNVDIIHNGILIEEYLKDGYNIIIAVDGITGNLIFRCLGLICKIPGYGAVILSDKNVNFIDTSRNANWERYYNAIKFLIGGDFG | soluble
2 | MEYYFTAQKLAVGYDNRPLIENIDFSLKRGEILTLIGPNGAGKSTILKSIARQLSLVSGTIYLDKSDVVTMNGNEFAKKMAVVLTDKLKTELMTCYDVVATGRYPYTGRFGVLSDEDKKAVDEAMELVNVSQIKDKDFTKISDGQRQRVMLSRAICQQPEIIVLDEPTSYLDIKYKLEFLSILQRLKRQKNLTVIMSLHELDMAKRVSDHILCIDGRYVDRYGTPEEVFTDQYVSGLFGITAGSLEHHHHHH | not soluble
3 | MCMDEIKKWKNVKAKKITETLNKRHFKASYVETLEEAKEKLISMIEEGSSVAIGGSTTLSQMGMVDVLRNGNYKFFDRYQNLPFDPDIVEIHRKSLTADYLITGTNAITENGELVNTDCTGNRVAPMIFGPKNVIIVAGINKIVENIDAALKRIREIAPMNSKRIKHETPCVETGFCVDCDCKKRICNFTTIIHNGIKFEGRIKIIIIADELGYLEHHHHHH | not soluble
4 | HMLLTTSRKPSQRTRSFSQRLSRIMGWRYINRGKMSLRDVLIEARGPVAVVSERHGNPARITFLDERGGERGYILFNPSFEMKKPELADKAVRVSSCPPGSEGLCNLMGLEVDESSSRDAWSIRTDEEYAWVMELMDARGTPAGFKLLIRDFRVGE | soluble
5 | MIEIKDKQLTGLRFIDLFAGLGGFRLALESCGAECVYSNEWDKYAQEVYEMNFGEKPEGDITQVNEKTIPDHDILCAGFPCQAFSISGKQKGFEDSRGTLFFDIARIVREKKPKVVFMENVKNFASHDNGNTLEVVKNTMNELDYSFHAKVLNALDYGIPQKRERIYMICFRNDLNIQNFQFPKPFELNTFVKDLLLPDSEVEHLVIDRKDLVMTNQEIEQTTPKTVRLGIVGKGGQGERIYSTRGIAIGLSAYGGGIFAKTGGYLVNGKTRKLHPRECARVMGYPDSYKVHPSTSQAYKQFGNSVVINVLQYIAYNIGSSLNFKPY | soluble
6 | MKSLSALEAEQWITIRSIFLIDLPFRSFSFSLPAEEKQDLQCNLQNLVNHNFSFLQVIHLQVSHINDADVLTGLNGRIGSFLLPSIATGTGTATGTAATTGASAITASSRSRRILGDEFEDHVIVPATCGSRAVVGKPQRIIDLETKVDTSNIPHRTVLFLFHTGTSKRGIENPQAVNLHLIPCYEHLLHRADKGLHHMLHIFHRKRTDRLDLTRQRLDRIKFRFPRLGFEHIHHRRFVITNLFFALIAHHRHCCHTEFVLKKRRTFSLSVGETKIRQCTGNFPDYDGLCRTMTG | not soluble
7 | MPANIDGTLIKDPMVLNIMLFGSDERPGETGYGRSDTMMLLSIDNRNKKLKLTSFMRDTYVNVPEWGDTKLTHAYSYGGPALAIETIERNFGIDIDRYAVVYFDTFPGIVDTLGGIEVEMTQTEADVMNESVGPEFANFTEGKNTLNGATALVYVRIRYGVGDDFGRTQRQRDFMLQVLNKVKGTRDVGTLLTLLTKILPGVTTNISVNEMAGLAGGAISSYMDYPMYQFRLPEDGAFSAVDVDAGNVLAIDDWDAAREHLQRFIYEDTVDPIYGPLEHHHHHH | soluble
8 | MAHHHHHHMTPAGAGEIFLRHNPYRSEVISWYRKFLKASFSVPWETDEDALYVLEEARRLFRKNARINDIETIERKLREAEMRYEIGVHYRIPYPRAFHKTQGSLQESGVAYAADLDSMYDHPVSPRIGWIMEGSVNGGTMGGSEHLTQYLEDGPGVENDNLSEGR | not soluble
9 | MGSDKIHHHHHHLVNFIRKNVLPQFGFSREHSTLYPLGNGHINQTFLVSDKSKSLVLQRINTQIFTDPKVVIQNAANISQHLLIKRQQLHYPLQVVSPIATVAGALYLDLGEQGFWRAIDYLPHSTTIEVVDTLNQAKLAAEAFGHFAEALSDLNPSCIADVIPNFLNLPQRIAQLREAKAGDTHNRFSHCIDWVGLCLSQTDLLATLVQYEAELPIRICHNDTKINNMLFDNRDMSSMAIIDLDTCMKGYLMYDFGDMVRAFCSPETEDSTNLTNVYARPEIVIAAATSYMESLGGIITPLEKRSLWLGTKVMSLMLGVRFLTDYLNGDTYFGVKYQTHNLDRAINQLTIYQSLLQQEAQLMPLFNS | not soluble
10 | MKFFVFALVLALMISMISADSHEKRHHGYRRKFHEKHHSHREFPFYGDYGSNYLYDNLEHHHHHH | not soluble
